Patent US20230374114A1 (Dana-Farber, published 2023)
Numbering of substitutions follows the chain as printed.

B1: RBD-R3-E1-B3 Ab (Ab_32) (scFv, V domains shown)
VH: QVQLVQSGAEVKKPGESLKISCKGSGYSFTSYWIGWVRQMPGKGLEWMGIIYPGDSDTRYSPSFQGQVTISADKSISTAYLQWSSLKASDTAMYYCARGWQWHDYWGQGTLVTVSS
VL: QTVVTQEPAVSVALGQTVRITCQGDSLRSYYASWYQQKPGQAPVLVVYDKDKRPSGIPDRFSGSTSGNTASLTITGAQAEDEADYYCNSRDRSDNHVVFGGGTKLTVL
B2: Ab_17 (scFv, V domains shown)
VH: QVQLVQSGGGVVQPGRSLRLSCAASGFTFDDYAMHWVRQVPGKGLEWVSGIDWNSGVIGYADSVKGRFTISRDNVKNSLYLQMNSLRTEDSALYYCAKDIGPGGSGSYYAFDIWGQGTTVTVSS
VL: QSALTQPASVSGSPGQSITISCTGTSSDVGGSKYVSWYQQHPGKAPKVMIYDVTKRPSGVPDRFSGSKSGNTASLTISGLQAEDEADYYCAAWDDSLNGVVFGGGTKLTVL
B3: S1-RBD-R3-T1-C7 Ab (Ab 29) (scFv, V domains shown)
VH: QVQLQQSGPGLVKPSQTLSLTCAISGDSVSSYSDAWNWIRQSPSRGLEWLGRTYYRSKWYNDYAVSVKSRITINPDTSKNQFSLQLSSVTPEDTAVYYCAREIVATTPFRNYYYGMDVWGQGTTVTVSS
VL: NFMLTQPHSVSESPGNTVTISCTRTSGSIASNYVQWYQQRPGSSPTTVIFQDKLRPSGVPDRFSGSIDSSSNSASLTISGLKTEDEADYYCQSYDSSSLWVFGGGTKLTVL
B4: Ab_14 (scFv, V domains shown)
VH: QVQLQQSGPGLVKPSQTLSLTCAISGDSVSSNSAAWNWIRQSPARGLEWLGRTYYRSRWYNDYAISMKSRITINPDTSKNQFSLQLESVTPEDTAVYYCAREIRGFDYWGQGTLVTVSS
VL: QSVLTQPPSASGSPGQSVTISCTGTSSDVGAYNFVSWYQHHPGKAPKLIIYDFNKRPSGVPDRFSGSKSGNTASLTVSGLQADDEADYYCSSYAGSNNFDVVFGGGTKLTVL
B5: Ab 23 (scFv, V domains shown)
VH: EVQLVQSGAEVKKPGSSVKVSCRSSGGTFSTYGITWVRQAPGQGLEWMGRIIPSLGIPNYAQKFQGRVTITADTSVSTAWMELSSLESDDTAIYYCARENIDLATNDFWGQGTLVTVSS
VL: QSALTQPPSASGSPGQSVTISCTGTSRDIGAYGYVSWYQQVPGKAPKLIIYEVRNRPSGVSSRFSGSKSGNTASLTISGLQAEDEADYYCSSYTSSSTLDVVFGGGTKLTVL
B6: RBD-R3-T1-H3 (Ab_2) (scFv, V domains shown)
VH: EVQLVQSGAEVKKPGSSVKVSCKTSGYTFTTSGISWVRQAPGQGLEWMGWISAYNGNTNYAQKLQGRVTMTTDTSTSTAYMELRSLRSDDTAVYYCARDFHLYYGMDVWGKGTLVTVSS
VL: QSALTQPPSASGSPGQSVTISCTGTSSDVGAYNYVSWYQQHPGKAPKLLIYDVTKRPPGVPDRFSGSKSGNTASLTVSGLQAEDEADYYCAVWDDGLNGRVVFGGGTKLTVL
B7: Ab 27 (scFv, V domains shown)
VH: QVQLVQSGTEVKKPGASVKVSCKASGYSFTGSHLHWVRQAPGQGLEWMGWINPDSGVINYAQKFQGRVTLTRDTSISTAYMELSGLRSDDTAVYYCARDKAIGYVWALDYWGQGTLVTVSS
VL: QSALTQPPSVSGSPGQSVTISCTGTSSDVGTYNRVSWYQQPPGKAPKLMIYEVSNRPSGVSNRFSGSKSGNTASLTISGLQAEDEADYYCSSYTRTFTYVFGTGTKVTVL
B8: Ab_16 (scFv, V domains shown)
VH: QVQLVQSGGGVVQPGRSLRLSCAASGFTFSNYGMHWVRQAPGKGLEWVALIWERGSKKDYADSVKGRFTVSRDNSKNTLYLQMNSLRPEDTAVYFCAREGISMTGAEYFQHWGQGTLVTVSS
VL: QSVLTQPPSVSGSPGQRVTMSCTGSSSNIGAGYDVHWYQQVPGAAPRLLIYGTNNRPSGVPDRFSGSKSGTSASLTITGLQAEDEADYYCQSYDNSLTDPYVFGTGTKVTVL
B9: RBD-R3-E1-A5 Ab (Ab_30) (scFv, V domains shown)
VH: QVQLVQSGGGVVQPGKSLRLSCTASGFTFSDFPIHWVRQAPGKGLEWVGVISYDGNIKYYGDSVKGRFTISRDNAKNSLYLQMNSLRVEDTAVYYCARGGSSFDIWGQGTTVTVSS
VL: SYELTQPPSVSEAPRQRVTISCSGSTSNIGNNAVSWYQHLPGKAPKLLIYYNERLPSGVSDRFSGSKSGTSASLAISGLRSEDEADYYCAAWDDSLSGHVVFGGGTKLTVL
B10: Ab 26 (scFv, V domains shown)
VH: QVQLVQSGGGLVQPGRSLRLSCAASGFTFDDYAMHWVRQVPGKGLEWVSGIDWNSGVIGYADSVKGRFTISRDNAKNSLYLQMNSLRAEDTALYYCAKDAYSYGFLGAFDIWGQGTMVTVSS
VL: LPVLTQPPSVSVAPGQTASITCGGDNIRTKGVHWYQQKPGQAPLLVIYYASDRPSGIPERFSGSSSGNTATLTISRVEAGDEADYYCQVWDSSSDLVVFGGGTTLTVL
B11: S1-RBD-R3-T1-E2 (Ab7) (scFv, V domains shown)
VH: B10 VH
VL: QPGLTQPPSVSVAPGQTARISCGGNNIGSKSVHWYQQKPGRAPVLVVYEDRGRPSGIPERFSGSNSGNTATLTVSRVEAGDEADYYCQVWDGDSDHYVFATGTKVSIL
B12: Ab_18 (scFv, V domains shown)
VH: EVQLVQSGGGVVQPGRSLRVSCAASGFSFSRYGMHWVRQAPGKGLEWVAFIRHDGSKKYYADSVEGRFTISRDNSRNTVSLEMNSLRGEDTAVYYCAKDGRLEAALDDWGQGTLVTVSS
VL: NFMLTQPHSMSGSAGKTVTVSCIRSSGSIANNFVQWYQQRPGSAPTTVIYEDNQRPSGVPDRFSGSIDSSSNSASLTISGLKTEDEADYYCQSYDSSNLVFGGGTRLTVL
B13: S1-R3-T1-C4 (Ab_8) (scFv, V domains shown)
VH: QVQLVQSGAEVKKPGSSVKVSCKASGGTFSSYAISWLRQAPGQGLEWMGWINPNSGGTNYAQKFQGRVTMTRDTSISTAYMELSRLRSDDTAVYYCARGSGGYYLGWGQGTLVTVSS
VL: QPGLTQPPSVSKGLRQTATLTCTGNSNNVGNQGAAWLQQHQGHPPKLLSYMNNNRPPGISERFSASRSGNTASLTITGLQPEDEADYYCSAWDSSLSRWVFGGGTKLSVL
B14: Ab 21 (scFv, V domains shown)
VH: QVQLVQSGGGLVQPGGSLRLSCATSGFTFDDYAMHWVRQAPGKGLEWVSGISWNSGSIGYVDSVKGRFTISRDNRNNKVYLQMNNLRAEDTAVYYCARDWWGSIDHWGLGTLVTVSS
VL: QSALTQPRSVSGSPGQSVTISCTGTSSDVGGYDYVSWYQQHPGKAPKLIIYDVSKRPSGVPDRFSGSKSGNTASLTVSGLQAEDEADYYCSSYTSSSPVVFGGGTKLTVL
B15: S1-RBD-R3-T1-D7 Ab (Ab_34) (scFv, V domains shown)
VH: QVQLVQSGVEVKKPGESLKISCKGSGYSFTSYWIGWVRQMPGKGLEWMGIIYPGDSDTRYSPSFQGQVTISADKSISTAYLQWSSLKASDTAMYYCARTTYSYGSFDYWGQGTLVTVSS
VL: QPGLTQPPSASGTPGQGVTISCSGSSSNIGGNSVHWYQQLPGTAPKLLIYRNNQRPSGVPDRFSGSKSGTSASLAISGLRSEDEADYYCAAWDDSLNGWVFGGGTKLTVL
B16: Ab 20 (scFv, V domains shown)
VH: QVQLVQSGGGSVKPGGSLRLSCAASGYRLSDYYMHWVRQAPGKGLEWVANIKQDGSEKYYVDSVKGRFTISRDNAKNSLYLQMNSLRAEDTAVYYCARVRGWSRGYFDYWGQGTLVTVSS
VL: NFMLTQPHSVSESPGKTVTISCTGSSGSIASNYVQWYQQRPGSAPTTVIYEDNQRPSGVPDRFSGSIDSSSNSASLLISGLKTEDEADYYCQSYDSSNHWVFGGGTKLTVL
B17: Ab 28 (scFv, V domains shown)
VH: QVTLKESGPGLVNPSETLSLTCTVSGASISNSFWSWIRQSPGKGLEWIGYTSYSGNSIYNPSLKSRLTMSIDTSKNQLSLNLRSLTAADTAVYYCARREWIKGHFDYWGQGTLVTVSS
VL: B16 VL with S26G, L77T, H99P, W100V
B18: S1-RBD-R3-T1-F5 (Ab2-7) (scFv, V domains shown)
VH: QVTLKESGPTRVKPTQTLTLTCTFSGFSLSTTGVGVGWIRQPPGKALEWLALIYWNDDKRYSPSLKSRLTITKDTSKNQVVLTMTNMDPVDTATYYCARISGSGYFYPFDIWGQGTTVTVSS
VL: B16 VL with G24R, A44S, L77T, T83A, N98S, H99L
B19: RBD-R3-E1-G7 (Ab2-10) (scFv, V domains shown)
VH: EVQLVESGPGLVKPSETLSLTCTVSGGSISSYYWSWIRQPAGKGLEWIGRIYTSGSTNYNPSLKSRVTMSVDTSKNQFSLKLSSVTAADTAVYYCARDVGFGWFDRWGQGTLVTVSS
VL: B16 VL with G24R, A44S, L77T, K82T, Y94F, S97A, N98S, H99L
B20: S1-RBD-R3-T1-B12 Ab (Ab_31) (scFv, V domains shown)
VH: QVQLVQSGAEVKKPGSSVKVSCKASGGTFSSYTISWVRQAPGQGLEWMGGIIPILGTPNYAQKFQDRVAITADKSTSTAYMELSSLRSEDTAVYYCAVGSGWYSGFDYWGQGTLVTVSS
VL: B16 VL with N53S, L77T, Y94F, D95H, S96N, H99P, W100V, V101I
B21: Ab 25 (scFv, V domains shown)
VH: QVQLVQSGGGLVQPGGSLRLSCAASGFTFSSYWMSWVRQAPGKGLEWVANIKQDGSEKYYVDSVKGRFTISRDNAKNSLYLQMNSLRAEDTAVYYCARGFYYYGAFDIWGQGTTVTVSS
VL: B16 VL with D68G, L77T
B22: Ab_13 (scFv, V domains shown)
VH: B18 VH with T10K, R11L, T32S, N56D, T72A, N78Y, T117M, S122A
VL: B16 VL with G24R, L77T, H99L
B23: Ab_19 (scFv, V domains shown)
VH: EVQLVESGAEVKKPGESLKISCKGSGYSFTSYWIGWVRQMPGKGLEWMGIIYPGDSDTRYSPSFQGQVTISADKSISTAYLQWSSLKASDTAMYYCARRGDLDAFDIWGQGTMVTVSS
VL: QPGLTQPPAASGTPGQRVTVSCSGASANIGSNAVSWFKQFPETAPRLLISGNTHRPSGVPDRVSGSKSGTSASLTISGLQSDDEADYYCAAWDDSLNGYVFGSGTKVTVL

Each binder was assayed against WT Spike (SARS-CoV-2, UniProt P0DTC2 16-1213).

Binder	Kd
B1	6.32 pM
B2	6.35 pM
B3	149 pM
B4	8.22 pM
B5	8.84 pM
B6	199 pM
B7	8.78 pM
B8	11.8 pM
B9	1.02 pM
B10	11 pM
B11	7 pM
B12	9.07 pM
B13	7.15 pM
B14	9.25 pM
B15	6.58 pM
B16	9.01 pM
B17	8.9 pM
B18	7.85 pM
B19	5.65 pM
B20	< 1 pM
B21	8.9 pM
B22	8.55 pM
B23	8.9 pM
